Tests used:
[1] = biological target: T1, rHA subtype H7 (A/Netherlands/219/03) (Influenza A virus …, UniProt Q6VMK1); experiment: ELISA; conditions: both partners purified
T1 construct: source: bought: Protein Sciences Corp. (baculovirus vectors in insect cells)

[2] = biological target: T2, rHA subtype H1 (A/New Caledonia/20/99) (Influenza A virus A/New …, UniProt Q6WG00, strain); experiment: ELISA; conditions: both partners purified
T2 construct: source: bought: Protein Sciences Corp. (baculovirus vectors in insect cells)

B1: CR6323 human IgG1 (antibody, V domains shown)
VH: EVQLVESGAEVKKPGSSVKVSCKASGGTFSSYGISWVRQAPGQGLEWMGDIIGMFGSTNYAQNFQGRLTITADESTSTAYMELSSLRSEDTAVYYCARSSGYYPAYLPHWGQGTLVTVSS
VL: not shown
B1: no binding (tested: 5 µg/ml IgG1) [1]; binds [2].
